In assay [1] the target is T1, hCD16a-Biotin (human, UniProt P08637 17-208, biotin (site not stated)).
T1 construct: also called CD16 (FcγRIIIa); CD16a (FcGRIIIa)
The assay is described as follows: binding kinetics on hCD16a-Biotin, signal (nm) against time (sec); platform not named. The procedure:
(§1) Binding affinity of VEGF antagonists to Fc receptors CD16 (FcγRIIIa), CD64 (FcγRI), and FcRn was evaluated using hCD16-biotin, hCD64-biotin, and hFcRn-β2M-biotin.
(§2) For FcγRIIIa and FcγRI binding assessments, each construct was diluted 1:5 from a starting concentration of 50 nM, except Hex-REGN3 (IgG1) Mut1 PVA/P329A, which was evaluated only at the highest concentration. For FcRn assessments, each construct was diluted 1:5 from a starting concentration of 200 nM, except Hex-REGN3 (IgG1) Mut1 PVA/P329A, which was evaluated only at the highest concentration.

The target of assay [2] is T2, hFcRn-β2M-Biotin (human, UniProt P55899 24-297; P61769 21-119, biotin (site and chain not stated)). Briefly: binding kinetics on hFcRn-β2M-Biotin, signal (nm) against time (sec); construct diluted 1:5 from 200 nM, concentrations not labelled on the sheet; platform not named. As to the method:
as §1, §2

Assay [3] concerns the target T3, hCD64-Biotin (human, UniProt P12314 16-288, limits assumed, biotin (site not stated)).
T3 construct: also called CD64 (FcγRI); CD64 (FcGRI)
Briefly: binding kinetics on hCD64-Biotin, signal (nm) against time (sec); construct diluted 1:5 from 50 nM, concentrations not labelled on the sheet; platform not named. The procedure:
as §1, §2

Assay [4] has as its target T2, hFcRn-β2M-Biotin. Briefly: binding kinetics on hFcRn-β2M-Biotin, instrument not named. The procedure: as §1, §2
Assay [5] addresses T3, hCD64-Biotin. The assay is described as follows: binding kinetics on hCD64-Biotin, instrument not named. As to the method: as §1, §2
Assay [6] addresses T3, hCD64-Biotin. The assay is described as follows: binding kinetics on hCD64-Biotin, signal (nm) against time (sec); platform not named. The procedure: as §1, §2

T1 sequence (P08637 17-208 limits assumed): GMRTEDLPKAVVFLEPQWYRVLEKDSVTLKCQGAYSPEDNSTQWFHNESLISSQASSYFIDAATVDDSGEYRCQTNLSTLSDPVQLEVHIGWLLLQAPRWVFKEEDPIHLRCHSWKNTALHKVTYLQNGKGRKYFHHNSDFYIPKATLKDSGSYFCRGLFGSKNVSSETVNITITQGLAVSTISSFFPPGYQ
T2 sequence (P55899 24-297 limits assumed, chain 1 of 2): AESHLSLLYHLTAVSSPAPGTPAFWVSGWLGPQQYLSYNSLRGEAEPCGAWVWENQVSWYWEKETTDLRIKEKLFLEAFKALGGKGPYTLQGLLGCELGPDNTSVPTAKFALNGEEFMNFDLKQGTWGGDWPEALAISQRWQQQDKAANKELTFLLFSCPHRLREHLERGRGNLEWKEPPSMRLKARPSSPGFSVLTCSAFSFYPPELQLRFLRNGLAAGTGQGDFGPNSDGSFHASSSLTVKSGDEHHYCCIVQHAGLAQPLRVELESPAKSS
T2 sequence (P61769 21-119 limits assumed, chain 2 of 2): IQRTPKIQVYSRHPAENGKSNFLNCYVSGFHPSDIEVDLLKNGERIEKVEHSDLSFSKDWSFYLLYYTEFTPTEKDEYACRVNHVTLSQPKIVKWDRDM
T3 sequence (P12314 16-288 limits assumed): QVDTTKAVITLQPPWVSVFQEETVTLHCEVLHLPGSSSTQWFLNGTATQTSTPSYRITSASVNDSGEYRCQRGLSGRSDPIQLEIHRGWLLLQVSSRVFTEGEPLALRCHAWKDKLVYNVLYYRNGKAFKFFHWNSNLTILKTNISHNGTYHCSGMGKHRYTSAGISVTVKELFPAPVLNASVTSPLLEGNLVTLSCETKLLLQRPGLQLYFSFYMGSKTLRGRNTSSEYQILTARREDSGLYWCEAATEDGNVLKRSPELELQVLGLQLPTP

B1: Hex-REGN3 (IgG1) Mut2 LALAPG (Fc fusion)
chain: SDTGRPFVEMYSEIPEIIHMTEGRELVIPCRVTSPNITVTLKKFPLDTLIPDGKRIIWDSRKGFIISNATYKEIGLLTCEATVNGHLYKTNYLTHRQTNTIIDVVLSPSHGIELSVGEKLVLNCTARTELNVGIDFNWEYPSSKHQHKKLVNRDLKTQSGSEMKKFLSTLTIDGVTRSDQGLYTCAASSGLMTKKNSTFVRVHEKDKTHTCPPCPAPEAAGGPSVFLFPPKPKDTLMCSRTPEVTCVVVDVSHEAPEVKFNWYVDGVEVHNAKTKPREEQYNSTYRVVSVLTVLHQDWLNGKEYKCKVSNKALGAGIEKTISKAKGQPREPQVYTLPPSRDELTKNQVSLTCLVKGFYPSDIAVEWESNGQPENNYKTTPPVLDSDGSFFLYSKLTVDKSRWQQGNVFSCSVMHEALHNHYTQKSLSLSPGKPTLYNVSLVMSDTAGTCY
notes: Hexameric VEGF antagonist designed as six dimers
As for B1, the results for the binding result in assay [1], in assay [2] and in assay [3] were “no binding (tested: 50 nM (not printed on the sheet))”, “binds” and “binds”, respectively.

B2: Hex-REGN3 (IgG1) Mut1 LALAPG (Fc fusion)
chain: SDTGRPFVEMYSEIPEIIHMTEGRELVIPCRVTSPNITVTLKKFPLDTLIPDGKRIIWDSRKGFIISNATYKEIGLLTCEATVNGHLYKTNYLTHRQTNTIIDVVLSPSHGIELSVGEKLVLNCTARTELNVGIDFNWEYPSSKHQHKKLVNRDLKTQSGSEMKKFLSTLTIDGVTRSDQGLYTCAASSGLMTKKNSTFVRVHEKDKTHTCPPCPAPEAAGGPSVFLFPPKPKDTLMISRTPEVTCVVVDVSHEDPEVKFNWYVDGVEVHNAKTKPREEQYNSTYRVVSVLTVCHQDWLNGKEYKCKVSNKALGAPIEKTISKAKGQPREPQVYTLPPSREEMTKNQVSLTCLVKGFYPSDIAVEWESNGQPENNYKTTPPVLDSDGSFFLYSKLTVDKSRWQQGNVFSCSVMHEALHNHYTQKSLDKSTGKPTLYNVSLIMSDTGGTCY
notes: Hexamer of six dimers (VEGFR1 domain 2 - VEGFR2 domain 3 - IgG1 Fc - IgM tailpiece); also called HEX-REGN3 (IgG1) LALAPG Mut1; hexameric Hex-REGN3
In assay [4], B2 displayed a Kd of less than 1 pM, a koff of less than 1e-07 s⁻¹ and a kon of 31000 M⁻¹ s⁻¹. The binding result in assay [1] is recorded as “no binding (tested: 50 nM (not printed on the sheet))”. For the same molecule, in assay [5], the dissociation constant Kd came to 0.0638 nM, the koff turned out to be 0.000511 s⁻¹ and the kon was determined as 8.01e+06 M⁻¹ s⁻¹.

B3: Hex-REGN3 (IgG1) Mut1-V2 PVA/P329A (Fc fusion)
chain: SDTGRPFVEMYSEIPEIIHMTEGRELVIPCRVTSPNITVTLKKFPLDTLIPDGKRIIWDSRKGFIISNATYKEIGLLTCEATVNGHLYKTNYLTHRQTNTIIDVVLSPSHGIELSVGEKLVLNCTARTELNVGIDFNWEYPSSKHQHKKLVNRDLKTQSGSEMKKFLSTLTIDGVTRSDQGLYTCAASSGLMTKKNSTFVRVHEKDKTHTCPPCPAPPVAGPSVFLFPPKPKDTLMISRTPEVTCVVVDVSHEDPEVKFNWYVDGVEVHNAKTKPREEQYNSTYRVVSVLTVCHQDWLNGKEYKCKVSNKALAAPIEKTISKAKGQPREPQVYTLPPSREEMTKNQVSLTCLVKGFYPSDIAVEWESNGQPENNYKTTPPVLDSDGSFFLYSKLTVDKSRWQQGNVFSCSVMHEALHNHYTQKSLDKSTGKPTLYNVSLVMSDTAGTCY
notes: Hexameric VEGF antagonist designed as six dimers; also called Hex-REGN3 (IgG1) Mut1 PVA/P329A
For the molecule B3, the binding result in assay [6] and in assay [1] was “no binding (tested: 50 nM (not printed on the sheet))” in each case.

As a reminder, the Kd is the concentration at which binding is half-saturated. What is called koff is the rate constant with which the complex falls apart. Read a high koff as fast dissociation. By kon is commonly meant the rate constant with which the complex forms. Lower therefore signals slower complex formation.

For the origin of these results see US20260055171A1 (Regeneron, published 2026).
